The results in this text go back to article PMC6858323, “Multiple conformations facilitate PilT function in the type IV pilus” (Nature Communications, 2019).

The chains are these.
B1: PilT^Pa two-hybrid fusion from pKT25::PilT^Pa (wild type) [Pseudomonas aeruginosa] / PilC^Pa two-hybrid fusion from pUT18C::PilC^Pa [Pseudomonas aeruginosa] (parent)
chain 1: MDITELLAFSAKQGASDLHLSAGLPPMIRVDGDVRRINLPPLEHKQVHALIYDIMNDKQRKDFEEFLETDFSFEVPGVARFRVNAFNQNRGAGAVFRTIPSKVLTMEELGMGEVFKRVSDVPRGLVLVTGPTGSGKSTTLAAMLDYLNNTKYHHILTIEDPIEFVHESKKCLVNQREVHRDTLGFSEALRSALREDPDIILVGEMRDLETIRLALTAAETGHLVFGTLHTTSAAKTIDRVVDVFPAEEKAMVRSMLSESLQSVISQTLIKKIGGGRVAAHEIMIGTPAIRNLIREDKVAQMYSAIQTGGSLGMQTLDMCLKGLVAKGLISRENAREKAKIPENF
chain 2: MLVKAHLRKQGINPLKVRKKGISLLGAGKKVKPMDIALFTRQMATMMGAGVPLLQSFDIIGEGFDNPNMRKLVDEIKQEVSSGNSLANSLRKKPQYFDELYCNLVDAGEQSGALENLLDRVATYKEKTESLKAKIRKAMTYPIAVIIVALIVSAILLIKVVPQFQSVFQGFGAELPAFTQMVVNLSEFLQEWWLAVIVGVGAIGFTFKELHKRSKKFRDTLDRTILKLPIFGGIVYKSAVARYARTLSTTFAAGVPLVDALDSVSGATGNIVFKNAVSKIKQDVSTGMQLNFSMRTTSVFPNMAIQMTAIGEESGSLDEMLSKVASYYEEEVDNAVDNLTTLMEPMIMAVLGVLVGGLIVAMYLPIFQLGNVVG
B2: PilT^Pa two-hybrid fusion from pKT25::PilT^Pa (wild type) [Pseudomonas aeruginosa] / PilT^Pa two-hybrid fusion from pUT18C::pilT [Pseudomonas aeruginosa] (parent)
chain 1: B1 chain 1
chain 2: B1 chain 1

The variants in the first experiment derive from B1. Briefly: bacterial two-hybrid (BACTH), β-galactosidase activity. As to conditions: with PilC^Pa two-hybrid fusion from pUT18C::PilC^Pa [Pseudomonas aeruginosa]; E. coli BTH101; n = 3; parent: 650; read off a plot.
For the variant chain 1 E204A, the response came to 460 Miller units.
For the variant chain 1 H229A, the response amounted to 650 Miller units.

Variants of B2 are the subject of another experiment. The description is as above. As to conditions: with PilT^Pa two-hybrid fusion from pUT18C::pilT [Pseudomonas aeruginosa]; E. coli BTH101; n = 3; parent: 9.3e+03; read off a plot.
With chain 1 K58Q, the response was found to be 10000 Miller units.
With chain 1 K58A, the response is 10000 Miller units.
The same measure, in the same setting: the result for chain 1 K58R reads 11000 Miller units; that for chain 1 E204A, 8000 Miller units; that for chain 1 D31K, 7000 Miller units.
The same measure, in the same setting: with chain 1 R123D the figure was 8000 Miller units; with chain 1 E258A, 9300 Miller units.
The same measure, in the same setting: the result for chain 1 H229A reads 11000 Miller units.
chain 1 D242K: the response was 8000 Miller units.
The same measure, in the same setting: with chain 1 R294E the figure was 8600 Miller units; with chain 1 R239A, 11000 Miller units.
The same measure, in the same setting: the result for chain 1 E219K reads 8600 Miller units; that for chain 1 T216R, 10000 Miller units.
